Drawing on the Immune Epitope Database (IEDB), this text covers Kd for 30 sequences.

Some targets named below: HLA-A*02:03; HLA-A*02:06; HLA-A*02:02; HLA-A*11:01; HLA-A*03:01; HLA-A*68:01; HLA-A*31:01; HLA-A*33:01.
Common to all, as to assay: IEDB peptide-MHC binding, purified MHC/competitive/radioactivity; filed as Kd, often an IC50 or EC50 that approximates it; ≥ and ≤ were set here for values at or beyond the usual limits of such assays
The mark [1] stands for this setting: source organism: Vaccinia virus WR.
Where [2] appears, read: source organism: SARS coronavirus Tor2.
Setting [3] is: source organism: Dengue virus 4 Philippines/H241/1956.
Where [4] appears, read: source organism: Human immunodeficiency virus type 1 (CLONE 12).
Setting [5] is: source organism: Dengue virus 2 Jamaica/1409/1983.
[6] abbreviates: source organism: Mammarenavirus brazilense.
The mark [7] stands for this setting: source organism: Lymphocytic choriomeningitis virus (strain Armstrong).
Setting [8] is: source organism: Mammarenavirus whitewaterense.

As for DLKHATDYIA, the equilibrium dissociation constant (Kd) (in general, a measure of binding affinity in units of concentration) was 2.96 µM with HLA-A*02:03 (setting [1]), 1.05 µM with HLA-A*02:06 (setting [1]) and 8.76 µM with HLA-A*02:02 (setting [1]).

For YTGGYDVSL, the Kd is 6.05 µM with HLA-A*02:03 (setting [1]), ≥ 20.3 µM in the test with HLA-A*02:06 (setting [1]) and 1.99 µM in the test with HLA-A*02:02 (setting [1]).

With NITTLLNET, the Kd with HLA-A*02:03 (setting [1]) was found to be 2.9 µM; in the test with HLA-A*02:06 (setting [1]) it was 2.31 µM; with HLA-A*02:02 (setting [1]), 1.3 µM.

For the sequence SLCSCICTV, the Kd with HLA-A*02:03 (setting [2]) amounted to 0.00419 µM; with HLA-A*02:06 (setting [2]), 0.00583 µM; with HLA-A*02:02 (setting [2]), 0.00396 µM.

In the case of AQPGLLSYV, the Kd with HLA-A*02:03 (source organism: Mammarenavirus guanaritoense) stood at 0.00553 µM.

Consider DLTAALRDV, for which, in the test with HLA-A*02:06 (source organism: Homo sapiens), the Kd is ≥ 28.1 µM.

For the sequence AVFKMSPGYV, the Kd in the test with HLA-A*02:03 (setting [3]) was 0.00715 µM.

With KLSMGLIAIA, the dissociation constant Kd with HLA-A*02:03 (setting [3]) worked out at 0.0229 µM.

In the case of RILQQLLFI, the Kd turned out to be 0.543 µM with HLA-A*02:03 (setting [4]) and 0.0216 µM with HLA-A*02:06 (setting [4]).

Take ILIRTGLLV: the Kd with HLA-A*02:03 (setting [5]) is 0.0163 µM.

For the sequence TILIRTGLLV, the Kd with HLA-A*02:06 (setting [5]) was 0.101 µM.

For MIKNLTQLFK, the Kd with HLA-A*11:01 (setting [1]) worked out at 0.000762 µM; with HLA-A*03:01 (setting [1]) it was 0.000828 µM; with HLA-A*68:01 (setting [1]), 0.00162 µM; in the test with HLA-A*31:01 (setting [1]) it was 0.00429 µM; with HLA-A*33:01 (setting [1]), 0.318 µM.

Take AIDRQVSVK: the Kd with HLA-A*11:01 (setting [1]) was 0.0421 µM; in the test with HLA-A*03:01 (setting [1]) it was 0.144 µM; with HLA-A*68:01 (setting [1]), 11.3 µM; in the test with HLA-A*31:01 (setting [1]) it was 4.37 µM; with HLA-A*33:01 (setting [1]) it was ≥ 77.7 µM.

As for AMYYAVLSEY, the Kd in the test with HLA-A*11:01 (setting [1]) was 0.0898 µM; with HLA-A*03:01 (setting [1]) it was ≤ 0.001 µM; with HLA-A*68:01 (setting [1]), 0.982 µM; with HLA-A*31:01 (setting [1]) it was 2.85 µM; with HLA-A*33:01 (setting [1]) it was 5.19 µM.

As for LIDLAFLIK, the Kd with HLA-A*11:01 (setting [1]) is 0.462 µM; with HLA-A*03:01 (setting [1]) it was 3.48 µM; with HLA-A*68:01 (setting [1]), ≥ 77.7 µM; in the test with HLA-A*31:01 (setting [1]), 2.33 µM; in the test with HLA-A*33:01 (setting [1]), ≥ 77.7 µM.

IMAYVNQAH: the dissociation constant Kd with HLA-A*11:01 (setting [6]) is ≥ 26.9 µM; in the test with HLA-A*03:01 (setting [6]), 2.21 µM; with HLA-A*68:01 (setting [6]) it was ≥ 23.5 µM; in the test with HLA-A*31:01 (setting [6]) it was 3.41 µM; in the test with HLA-A*33:01 (setting [6]), ≥ 36 µM.

On to IYKGVYQFK, for which the Kd in the test with HLA-A*11:01 (setting [7]) came out at 0.718 µM; in the test with HLA-A*03:01 (setting [7]), 0.198 µM; with HLA-A*68:01 (setting [7]) it was 8.81 µM; with HLA-A*31:01 (setting [7]) it was 0.00321 µM; in the test with HLA-A*33:01 (setting [7]), 0.0135 µM.

Consider ALALLLLDR, for which the dissociation constant Kd is 7.53 µM in the test with HLA-A*11:01 (setting [2]); 3.15 µM with HLA-A*03:01 (setting [2]); ≥ 52.9 µM with HLA-A*68:01 (setting [2]); 8 µM in the test with HLA-A*31:01 (setting [2]); ≥ 51.7 µM with HLA-A*33:01 (setting [2]).

Take VTGLFKDCSK: the dissociation constant Kd is 4.74 µM in the test with HLA-A*11:01 (setting [2]); 4.67 µM in the test with HLA-A*03:01 (setting [2]); 10.3 µM in the test with HLA-A*68:01 (setting [2]); 5.12 µM in the test with HLA-A*31:01 (setting [2]); ≥ 57.1 µM with HLA-A*33:01 (setting [2]).

As to YVASYLLAA, the Kd with HLA-A*02:03 (source organism: Homo sapiens) came out at 0.000978 µM.

On to EFIFSALDEK, for which the Kd in the test with HLA-A*11:01 (setting [1]) is 0.00142 µM; with HLA-A*03:01 (setting [1]) it was 0.0155 µM; in the test with HLA-A*68:01 (setting [1]) it was 0.0013 µM; with HLA-A*31:01 (setting [1]), ≥ 70 µM; with HLA-A*33:01 (setting [1]), 1.63 µM.

With FMLIFNVKSK, the dissociation constant (Kd) worked out at 3.43 µM with HLA-A*11:01 (setting [1]); 0.211 µM with HLA-A*03:01 (setting [1]); 0.0377 µM with HLA-A*68:01 (setting [1]); 6.05 µM with HLA-A*31:01 (setting [1]); 19.4 µM in the test with HLA-A*33:01 (setting [1]).

Turning to FIMAYVNQAH, the Kd in the test with HLA-A*11:01 (setting [6]) is ≥ 42.7 µM; with HLA-A*03:01 (setting [6]) it was ≥ 20.3 µM; with HLA-A*68:01 (setting [6]) it was 3.45 µM; with HLA-A*31:01 (setting [6]), ≥ 30.2 µM; with HLA-A*33:01 (setting [6]), 14.5 µM.

On to QILDNAAKY, for which the equilibrium dissociation constant (Kd) in the test with HLA-A*11:01 (setting [1]) is 8.8 µM; with HLA-A*03:01 (setting [1]), ≥ 78 µM; with HLA-A*68:01 (setting [1]), ≥ 77.7 µM; in the test with HLA-A*31:01 (setting [1]), ≥ 77.9 µM; in the test with HLA-A*33:01 (setting [1]), ≥ 77.7 µM.

Regarding RSTAIKVTK, the equilibrium dissociation constant (Kd) in the test with HLA-A*11:01 (setting [1]) came out at 0.00677 µM; with HLA-A*03:01 (setting [1]), 0.214 µM; with HLA-A*68:01 (setting [1]), 0.0139 µM; with HLA-A*31:01 (setting [1]), 0.00126 µM; in the test with HLA-A*33:01 (setting [1]), 11.2 µM.

Consider GVFKNPCTSH, for which the dissociation constant Kd was 2.69 µM with HLA-A*11:01 (setting [8]); 6.29 µM with HLA-A*03:01 (setting [8]); ≥ 26 µM with HLA-A*68:01 (setting [8]); ≥ 30.1 µM with HLA-A*31:01 (setting [8]); ≥ 70 µM with HLA-A*33:01 (setting [8]).

For RVLIFILLTA, the Kd with HLA-A*02:06 (source organism: Dengue virus 2 Peru/IQT2913/1996) was found to be 0.397 µM.

For TLDDLAIKQY, the Kd with HLA-A*11:01 (setting [1]) was 2.92 µM; with HLA-A*03:01 (setting [1]) it was 18.4 µM; with HLA-A*68:01 (setting [1]), ≥ 62.4 µM; in the test with HLA-A*31:01 (setting [1]), ≥ 70 µM; with HLA-A*33:01 (setting [1]), ≥ 70 µM.

With ALYEQVVMDY, the dissociation constant Kd with HLA-A*11:01 (setting [2]) was 3.43 µM; with HLA-A*03:01 (setting [2]), 0.348 µM; in the test with HLA-A*68:01 (setting [2]), ≥ 32.5 µM; in the test with HLA-A*31:01 (setting [2]) it was ≥ 44.6 µM; with HLA-A*33:01 (setting [2]), ≥ 27.1 µM.

For RLQMAGVEVR, the Kd was found to be 14.7 µM with HLA-A*11:01 (setting [1]); 1.48 µM with HLA-A*03:01 (setting [1]); 0.91 µM with HLA-A*68:01 (setting [1]); 0.118 µM in the test with HLA-A*31:01 (setting [1]); 4.95 µM with HLA-A*33:01 (setting [1]).
